Laboratory results taken from patent US20260234228A1 (GENOME, published 2026).

T1: mouse CNTN4 overexpressed on 293F cells (mouse, UniProt Q69Z26 19-1000)
T1 construct: whole, on cells; Overexpressed on 293F cells; the construct is not described; also called Mouse CNTN4 cell; mouse antigen-overexpressing 293F cells
T1 sequence (looked up): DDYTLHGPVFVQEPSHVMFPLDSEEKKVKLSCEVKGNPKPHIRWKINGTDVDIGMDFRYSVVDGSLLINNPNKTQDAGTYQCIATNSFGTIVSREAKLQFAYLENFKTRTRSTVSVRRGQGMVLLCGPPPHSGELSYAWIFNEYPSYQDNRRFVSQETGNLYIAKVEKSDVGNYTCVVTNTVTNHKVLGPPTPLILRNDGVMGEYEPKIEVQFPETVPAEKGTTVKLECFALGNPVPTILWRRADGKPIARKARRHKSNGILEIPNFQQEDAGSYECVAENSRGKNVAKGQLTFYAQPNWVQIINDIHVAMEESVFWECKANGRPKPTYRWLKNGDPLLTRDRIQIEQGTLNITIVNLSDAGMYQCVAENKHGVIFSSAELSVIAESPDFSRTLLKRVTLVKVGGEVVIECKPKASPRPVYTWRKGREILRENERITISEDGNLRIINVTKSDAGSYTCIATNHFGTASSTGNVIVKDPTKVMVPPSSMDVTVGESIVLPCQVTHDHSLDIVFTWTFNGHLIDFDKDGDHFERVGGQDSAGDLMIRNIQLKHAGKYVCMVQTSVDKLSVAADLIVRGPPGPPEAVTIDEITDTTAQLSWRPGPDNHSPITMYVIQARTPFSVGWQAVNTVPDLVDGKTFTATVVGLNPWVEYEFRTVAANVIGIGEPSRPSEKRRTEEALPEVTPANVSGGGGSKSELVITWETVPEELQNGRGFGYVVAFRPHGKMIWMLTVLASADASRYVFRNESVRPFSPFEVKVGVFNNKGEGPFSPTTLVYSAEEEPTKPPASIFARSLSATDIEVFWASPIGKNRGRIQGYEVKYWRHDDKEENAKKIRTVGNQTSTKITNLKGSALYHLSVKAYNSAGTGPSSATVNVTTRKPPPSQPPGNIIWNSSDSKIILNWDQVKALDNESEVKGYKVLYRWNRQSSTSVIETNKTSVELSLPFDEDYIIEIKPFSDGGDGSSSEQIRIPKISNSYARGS

T2: human CNTN4 overexpressed on cells (human, UniProt Q8IWV2 19-1000)
T2 construct: whole, on cells; the construct is not described; also called human CNTN4 cell; human CNTN4-overexpressing 293F cells
T2 sequence (looked up): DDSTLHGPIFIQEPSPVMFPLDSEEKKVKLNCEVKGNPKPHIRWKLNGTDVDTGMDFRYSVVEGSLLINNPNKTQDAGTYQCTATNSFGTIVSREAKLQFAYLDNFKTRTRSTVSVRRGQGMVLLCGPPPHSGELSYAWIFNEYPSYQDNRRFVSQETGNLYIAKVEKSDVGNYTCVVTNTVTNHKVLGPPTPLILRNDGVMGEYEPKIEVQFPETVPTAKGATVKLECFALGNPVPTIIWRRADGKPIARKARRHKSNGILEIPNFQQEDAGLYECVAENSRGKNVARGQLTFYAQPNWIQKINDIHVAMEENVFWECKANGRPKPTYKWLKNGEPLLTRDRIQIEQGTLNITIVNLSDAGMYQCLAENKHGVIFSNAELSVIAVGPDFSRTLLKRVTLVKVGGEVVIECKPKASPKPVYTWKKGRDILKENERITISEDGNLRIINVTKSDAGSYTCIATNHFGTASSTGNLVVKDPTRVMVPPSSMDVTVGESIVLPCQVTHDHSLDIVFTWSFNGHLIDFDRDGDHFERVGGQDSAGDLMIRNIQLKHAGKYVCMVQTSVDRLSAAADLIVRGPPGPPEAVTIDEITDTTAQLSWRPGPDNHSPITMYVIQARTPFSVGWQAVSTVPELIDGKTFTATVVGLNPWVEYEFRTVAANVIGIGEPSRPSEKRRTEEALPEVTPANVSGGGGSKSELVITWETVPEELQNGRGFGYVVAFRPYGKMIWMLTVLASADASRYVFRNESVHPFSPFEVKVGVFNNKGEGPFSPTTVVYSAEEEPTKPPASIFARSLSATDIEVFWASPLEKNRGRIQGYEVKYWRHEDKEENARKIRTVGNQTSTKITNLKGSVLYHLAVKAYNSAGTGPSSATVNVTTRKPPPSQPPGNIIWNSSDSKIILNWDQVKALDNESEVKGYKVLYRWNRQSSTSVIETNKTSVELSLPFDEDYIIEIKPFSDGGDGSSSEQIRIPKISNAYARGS


How the values were obtained:
[1] = target: T1, mouse CNTN4 overexpressed on 293F cells; experiment: FACS, scFv periplasm on mouse CNTN4-overexpressing 293F cells, PE anti-His detection
[2] = target: T2, human CNTN4 overexpressed on cells; experiment: FACS, scFv periplasm on human CNTN4-overexpressing 293F cells, PE anti-His detection

| EC50 [1] | Top MFI [1] | EC50 [2] | Top MFI [2] | Binder |
| --- | --- | --- | --- | --- |
| 33.2 nM | 2070 MFI |  |  | A101 scFv (scFv, V domains shown) VH: not shown VL: ELTQDPAVSVALGQTVRITCSGSSGSYGWYQQKPGQAPVLVIYDNTNRPSGIPDRFSGSSSGNTASLTITGAQAEDEADYYCGGYDGSTDVFGGGTKLTVL |
| 13.9 nM | 2460 MFI |  |  | A105 scFv (scFv, V domains shown) VH: not shown VL: ELTQDPAVSVALGQTVRITCSGSSGSYGWYQQKPGQAPVLVIYDNTNRPSGIPDRFSGSSSGNTASLTITGAQAEDEADYYCGGYDGSTDVFGGGTKLTVL |
|  |  | 3 nM | 1750 MFI | A202 scFv (scFv, V domains shown) VH: not shown VL: ELTQDPAVSVALGQTVRITCSGRSGSYGWYQQKPGQAPVLVIYDNTNRPSGIPDRFSGSSSGNTASLTITGAQAEDEADYYCGGYWGSTDVFGGGTKLTVL |
|  |  | 2.8 nM | 1740 MFI | A217 scFv (scFv, V domains shown) VH: not shown VL: ELTQDPAVSVALGQTVRITCSGSSGSYGWYQQKPGQAPVLVIYDNTNRPSGIPDRFSGSSSGNTASLTITGAQAEDEADYYCGGYWGSTDVFGGGTKLTVL |
|  |  | 3.1 nM | 1370 MFI | A211 scFv (scFv, V domains shown) VH: not shown VL: ELTQDPAVSVALGQTVRITCSGRSGSYGWYQQKPGQAPVLVIYDNTNRPSGIPDRFSGSSSGNTASLTITGAQAEDEADYYCGGYWGSTDVFGGGTKLTVL |
|  |  | 3.2 nM | 1380 MFI | A201 scFv (scFv, V domains shown) VH: not shown VL: ELTQDPAVSVALGQTVRITCSGRSGSYGWYQQKPGQAPVLVIYDNTNRPSGIPDRFSGSSSGNTASLTITGAQAEDEADYYCGGYWGSTDVFGGGTKLTVL |
|  |  | 3.2 nM | 1620 MFI | A207 scFv (scFv, V domains shown) VH: not shown VL: ELTQDPAVSVALGQTVRITCSGSSGSYGWYQQKPGQAPVLVIYDNTNRPSGIPDRFSGSSSGNTASLTITGAQAEDEADYYCGGYWGSTDVFGGGTKLTVL |
|  |  | 2.7 nM | 1630 MFI | A212 scFv (scFv, V domains shown) VH: not shown VL: ELTQDPAVSVALGQTVRITCSGRSGSYGWYQQKPGQAPVLVIYDNTNRPSGIPDRFSGSSSGNTASLTITGAQAEDEADYYCGGYWGSTDVFGGGTKLTVL |
|  |  | 4.8 nM | 1370 MFI | A206 scFv (scFv, V domains shown) VH: not shown VL: ELTQDPAVSVALGQTVRITCSGRSGSYGWYQQKPGQAPVLVIYDNTNRPSGIPDRFSGSSSGNTASLTITGAQAEDEADYYCGGYWGSTDVFGGGTKLTVL |
| 13.6 nM | 4110 MFI |  |  | A107 scFv (scFv, V domains shown) VH: not shown VL: ELTQDPAVSVALGQTVRITCSGSSGSYGWYQQKPGQAPVLVIYDNTNRPSGIPDRFSGSSSGNTASLTITGAQAEDEADYYCGGYDGSTDVFGGGTKLTVL |
|  |  | 3.6 nM | 1470 MFI | A215 scFv (scFv, V domains shown) VH: not shown VL: ELTQDPAVSVALGQTVRITCSGSSGSYGWYQQKPGQAPVLVIYDNTNRPSGIPDRFSGSSSGNTASLTITGAQAEDEADYYCGGYWGSTDVFGGGTKLTVL |
|  |  | 3.7 nM | 1320 MFI | A208 scFv (scFv, V domains shown) VH: not shown VL: ELTQDPAVSVALGQTVRITCSGSSGSYGWYQQKPGQAPVLVIYDNTNRPSGIPDRFSGSSSGNTASLTITGAQAEDEADYYCGGYWGSTDVFGGGTKLTVL |
|  |  | 3.2 nM | 1700 MFI | A213 scFv (scFv, V domains shown) VH: not shown VL: ELTQDPAVSVALGQTVRITCSGSSGSYGWYQQKPGQAPVLVIYDNTNRPSGIPDRFSGSSSGNTASLTITGAQAEDEADYYCGGYWGSTDVFGGGTKLTVL |
|  |  | 2.3 nM | 1600 MFI | A209 scFv (scFv, V domains shown) VH: not shown VL: ELTQDPAVSVALGQTVRITCSGRSGSYGWYQQKPGQAPVLVIYDNTNRPSGIPDRFSGSSSGNTASLTITGAQAEDEADYYCGGYWGSTDVFGGGTKLTVL |
|  |  | 2.9 nM | 1630 MFI | A216 scFv (scFv, V domains shown) VH: not shown VL: ELTQDPAVSVALGQTVRITCSGRSGSYGWYQQKPGQAPVLVIYDNTNRPSGIPDRFSGSSSGNTASLTITGAQAEDEADYYCGGYWGSTDVFGGGTKLTVL |
|  |  | 3.3 nM | 1240 MFI | A203 scFv (scFv, V domains shown) VH: not shown VL: ELTQDPAVSVALGQTVRITCSGRSGSYGWYQQKPGQAPVLVIYDNTNRPSGIPDRFSGSSSGNTASLTITGAQAEDEADYYCGGYWGSTDVFGGGTKLTVL |
|  |  | 1.7 nM | 1700 MFI | A204 scFv (scFv, V domains shown) VH: not shown VL: ELTQDPAVSVALGQTVRITCSGRSGSYGWYQQKPGQAPVLVIYDNTNRPSGIPDRFSGSSSGNTASLTITGAQAEDEADYYCGGYWGSTDVFGGGTKLTVL |
|  |  | 3.5 nM | 1460 MFI | A214 scFv (scFv, V domains shown) VH: not shown VL: ELTQDPAVSVALGQTVRITCSGSSGSYGWYQQKPGQAPVLVIYDNTNRPSGIPDRFSGSSSGNTASLTITGAQAEDEADYYCGGYWGSTDVFGGGTKLTVL |
|  |  | 3.7 nM | 1290 MFI | A218 scFv (scFv, V domains shown) VH: not shown VL: ELTQDPAVSVALGQTVRITCSGRSGSYGWYQQKPGQAPVLVIYDNTNRPSGIPDRFSGSSSGNTASLTITGAQAEDEADYYCGGYWGSTDVFGGGTKLTVL |
|  |  | 3.9 nM | 1270 MFI | A219 scFv (scFv, V domains shown) VH: not shown VL: ELTQDPAVSVALGQTVRITCSGSSGSYGWYQQKPGQAPVLVIYDNTNRPSGIPDRFSGSSSGNTASLTITGAQAEDEADYYCGGYWGSTDVFGGGTKLTVL |
|  |  | 4.4 nM | 1380 MFI | A210 scFv (scFv, V domains shown) VH: not shown VL: ELTQDPAVSVALGQTVRITCSGRSGSYGWYQQKPGQAPVLVIYDNTNRPSGIPDRFSGSSSGNTASLTITGAQAEDEADYYCGGYWGSTDVFGGGTKLTVL |
| 72.6 nM | 2740 MFI |  |  | A106 scFv (scFv, V domains shown) VH: not shown VL: ELTQDPAVSVALGQTVRITCSGSSGSYGWYQQKPGQAPVLVIYDNTNRPSGIPDRFSGSSSGNTASLTITGAQAEDEADYYCGGYDGSTDVFGGGTKLTVL |
|  |  | 2 nM | 1300 MFI | A205 scFv (scFv, V domains shown) VH: not shown VL: ELTQDPAVSVALGQTVRITCSGSSGSYGWYQQKPGQAPVLVIYDNTNRPSGIPDRFSGSSSGNTASLTITGAQAEDEADYYCGGYWGSTDVFGGGTKLTVL |
